Laboratory results: patent US8415106B2, “Cell-based screen for agents useful for reducing neuronal demyelination or promoting neuronal remyelination” (Myelin Repair Foundation, Inc., priority 2005, dated 2013)

Tests used:
[1] = system: ER stress markers (BIP, CHOP, p-eIF-2α, caspase-12); assay: ER stress markers in IFN-γ-treated cultured rat oligodendrocytes (real-time PCR, Western blot); assay type: cell-based
Procedure: To test whether apoptosis of oligodendrocytes that is induced by INF-γ affects ER stress, the effect on the morphology, the degree of apoptosis and the expression of ER markers was studied in a culture of oligodendrocyte precursor cells (OPC). Oligodendrocyte progenitors were cultured from neonatal rat brains (Baerwald, et al. (1998) J. Neurosci. Res. 52: 230-239). A mixed glial culture was grown in flasks in medium containing 10% fetal bovine serum (FBS), and when the astrocyte layer became confluent (10-14 days), oligodendrocyte progenitors were separated from astrocytes and microglia using an orbital shaker. Cells, greater than 95% of which were A2B5 positive, GFAP negative and CD11b negative, were cultured in 0.5% FBS containing medium, which also contained PDGF (10 ng/ml) and FGF (5 ng/ml) (both from R&D Systems, Minneapolis, Minn.). Then cells were switched to 0.5% FBS medium without PDGF and FGF for differentiation. After 5 days in the differentiating medium, approximately 40% of cells were positive for myelin protein 2′3′-cyclic nucleotide 3′-phosphodiestaerase (CNP). 70 U/ml recombinant rat IFN-γ (Calbiochem, La Jolla, Calif.) was added to the cells that had been allowed to differentiation for 5 days. […]
To determine whether INF-γ affects ER function, the RNA expression of ER markers binding immunoglobulin protein (BIP), CAAT enhancer binding protein homologous protein (CHOP), and caspase 12 was determined using real time PCR. […]
To determine the effect of INF-γ on the level of phosphorylated eIF-2α and caspase 12 proteins, western blot analysis was performed using the following antibodies anti-eIF-2α (1:500; Santa Cruz), anti-p-eIF-2α (1:1000, Cell signaling Technology), anti-caspase-12 (1:500; Santa Cruz) and anti-actin (1:1000; Sigma, St Louis, Mo.), and according to the following protocol. […] The protein content of each extract was determined by protein assay (Bio-Rad). […]

Stat1 = Stat1 nuclear translocation assay in mixed primary oligodendrocyte cultures; assay type: cell-based, mice; conditions: 100 U/mL IFN-γ for 30 min, one hundred PLP positive cells counted
Procedure: Mixed primary oligodendrocyte cultures were prepared as previously described (Baerwald et al., 2000). Briefly, brain tissue was harvested from 2-3-day-old newborn pups of PLP/SOCS1 and C57B1/6J matings. Because the litters contained transgenic and wild-type pups, the brain of each animal was processed individually, cultured separately, and later genotype matched. Each brain was digested separately using 0.25% trypsin and 10 μg/ml of DNAaseI (Invitrogen) in Dulbecco's modified Eagle's medium (DMEM) for 20 min at 37° C., and cells were cultured on separate poly-D-lysine-coated […] flasks (Sigma-Aldrich). The cultures were maintained with 10% fetal bovine serum DMEM at 37° C. with 5% CO2 for 12 days, and then switched to a defined medium containing […] of insulin, 50 μg/ml of transferrin, 30 nM of selenium, 10 nM of biotin, 1 nM of progesterone, 15 nM of T3, 0.1% bovine serum albumin, and 1% […] (Sigma-Aldrich). […] One hundred PLP positive cells were manually counted in both wild-type and PLP/SOCS1 cultures. […]
The responsiveness of PLP/SOCS1 oligodendrocytes to IFN-γ was studied in primary mixed glial cultures. […] In contrast, Stat1 nuclear translocation was detected only in occasional PLP positive oligodendrocytes (6±2 cells) following IFN-γ stimulation (p<0.05).

B1: IFN-γ: pleotropic cytokine secreted by activated T lymphocytes and natural killer cells; recombinant rat IFN-γ added to cultures or transgenically expressed in mouse CNS (protein, UniProt P01581 23-156, looked up)
Interferon gamma: QGTLIESLESLKNYFNSSSMDAMEGKSLLLDIWRNWQKDGNTKILESQIISFYLRLFEVLKDNQAISNNISVIESHLITNFFSNSKAKKDAFMSIAKFEVNNPQIQHKAVNELIRVIHQLSPESSLRKRKRSRC
B1 was tested, and the “caspase-12 expression (real-time PCR)” value ([1]; 70 U/ml IFN-γ) was “induction of caspase-12 was observed”, the “level of phosphorylated eIF-2α (Western blot)” value ([1]; 70 U/ml IFN-γ, oligodendroglial cultures) was “significantly elevated” and the “level of the active fragment of caspase-12 (Western blot)” value ([1]; after 48 h of IFN-γ treatment) was “strongly elevated”. The “PLP positive oligodendrocytes with Stat1 nuclear translocation” value (Stat1; PLP/SOCS1 cultures) was 6±2 cells and the “PLP positive oligodendrocytes with Stat1 nuclear translocation” value (Stat1; wild-type cultures) was 96±3 cells.
